Data as given in patent US20110305716A1.

Experiments:
[1] = biological target: rat total IgG (Sigma-Aldrich) (rat); assay: ELISA; rat total IgG coated on plate, 10 ng TGF-beta in PBS, 18 h 4 C, bound TGF-beta detected with TGF-beta ELISA kit
[2] = biological target: rat total IgG (Sigma-Aldrich) (rat); assay: ELISA; rat total IgG coated on plate, 10 ng TGF-beta in 10% glycerol in PBS, 18 h 4 C, bound TGF-beta detected with TGF-beta ELISA kit
[3] = biological target: rat total IgG (Sigma-Aldrich) (rat); assay: ELISA; rat total IgG coated on plate, 10 ng TGF-beta in 0.1M Tris pH 7.4 (0 mM NaCl), 18 h 4 C, bound TGF-beta detected with TGF-beta ELISA kit
[4] = biological target: rat total IgG (Sigma-Aldrich) (rat); assay: ELISA; rat total IgG coated on plate, 10 ng TGF-beta in 10% glycerol in 0.1M Tris pH 7.4, 18 h 4 C, bound TGF-beta detected with TGF-beta ELISA kit
[5] = biological target: TGF-beta receptors on mink lung epithelial cells (ATCC CCL-64) (mink); assay: cell-based or functional assay
[6] = biological target: Mouse IgG1 (eBioscience) (mouse); assay: Sephadex G-50 gel filtration of the TGF-beta/IgG mixture; fractions assayed by TGF-beta ELISA
[7] = biological target: Mouse IgG2a (eBioscience) (mouse); assay: as above
[8] = biological target: total mouse IgG (Sigma-Aldrich) (mouse); assay: 20 ng TGF-beta and 1 ug soluble total mouse IgG, 5 min in PBS at 42 C; Sepharose G-50 spin column; TGF-beta ELISA of eluate
[9] = biological target: total mouse IgG (Sigma-Aldrich) (mouse); assay: 20 ng TGF-beta and 1 ug soluble total mouse IgG, 5 min in PBS at room temperature; Sepharose G-50 spin column; TGF-beta ELISA of eluate
[10] = biological target: total mouse IgG (Sigma-Aldrich) (mouse); assay: 20 ng TGF-beta and 1 ug soluble total mouse IgG, 5 min in 0.5x PBS pH 11 at room temperature; Sepharose G-50 spin column; TGF-beta ELISA of eluate

“TGF-beta (Leinco Technologies, St. Louis, Mo.) (from UniProt P01137 279-390) (ligand)” gave a Net Absorbance (450) (absorbance at 450) [1] of 0.18, a Net Absorbance (450) (absorbance at 450) [2] of 0 and a Net Absorbance (450) (absorbance at 450) [3] of 1.02. The Net Absorbance (450) (absorbance at 450) [4] was 0.7.
“Transforming growth factor-beta 1 (Peprotech) (from UniProt P01137 279-390) (ligand)” gave a Cell Viability (OD450/Control OD450) at 0.25 pg/mL acid-dissociated (Treated) AcTigg (OD450/Control OD450) [5] of 0.621, a Cell Viability (OD450/Control OD450) at 2.5 pg/mL acid-dissociated (Treated) AcTigg (OD450/Control OD450) [5] of 0.645 and a Cell Viability (OD450/Control OD450) at 25 pg/mL acid-dissociated (Treated) AcTigg (OD450/Control OD450) [5] of 0.651. The Cell Viability (OD450/Control OD450) at 250 pg/mL acid-dissociated (Treated) AcTigg (OD450/Control OD450) [5] was 0.651, the Cell Viability (OD450/Control OD450) at 2500 pg/mL acid-dissociated (Treated) AcTigg (OD450/Control OD450) [5] was 0.616 and the percent of TGF-beta eluting in the IgG-bound fraction [6] was 40 to 50%. It also gave a percent of TGF-beta eluting in the IgG-bound fraction [7] of 40 to 50%, a Net Absorbance (450) (absorbance at 450) [8] of 0.117 and a Net Absorbance (450) (absorbance at 450) [9] of 0.193. For the same substance, the Net Absorbance (450) (absorbance at 450) [10] was 0.558.
In the case of “mouse AcTigg (TGF-beta 1 non-covalently bound to mouse IgG1), PEG-precipitated, intact (from UniProt P01137 279-390)”, the Cell Viability (OD450/Control OD450) at 0.25 pg/mL AcTigg (OD450/Control OD450) [5] is reported as 0.965, the Cell Viability (OD450/Control OD450) at 2.5 pg/mL AcTigg (OD450/Control OD450) [5] is reported as 0.924 and the Cell Viability (OD450/Control OD450) at 25 pg/mL AcTigg (OD450/Control OD450) [5] is reported as 0.897. For the same substance, the Cell Viability (OD450/Control OD450) at 250 pg/mL AcTigg (OD450/Control OD450) [5] was 0.817 and the Cell Viability (OD450/Control OD450) at 2500 pg/mL AcTigg (OD450/Control OD450) [5] was 0.678.
